Results: US20030216309A1 (UNIVERSITY OF VERMONT AND STATE AGRICULTURAL COLLEGE, published 2003)

Columns and labels:
[1] = target: T1, purified ErbB2 ECD-polyhistidine-tagged protein (human, UniProt P04626 23-653); test: phage ELISA on coated CBECD, BSA as control
T1 construct: also called CBECD; purified extracellular domain of ErbB2 with a His tag; not shown: polyhistidine tag
Experimental: SfmECDAP labeled wells were plated with 250 ng of a purified ErbB2 ECD-alkaline phosphatase fusion protein; CBECD labeled wells were plated with 250 ng of a purified ErbB2 ECD-polyhistidine-tagged protein; bovine serum albumin (denoted BSA) was used as a negative target control. E12 and CB1 are peptide phage clones identified independently that display an identical (ErbB2-binding) peptide. E12CB1-NA peptide phage clones were constructed to present, with and without a glycine-glycine-alanine linker, a shortened form of the peptide. […] G78 is a peptide phage clone that binds strongly to the Grb7 SH2 domain, used here as a negative peptide phage control. Library phage also serve as a negative peptide phage control. 9G6 is an antibody to the ECD of ErbB2.

[2] = target: T2, native, intact ErbB2 extracted from the membranes of human breast cancer cells (human, UniProt P04626 23-1255); test: phage ELISA on captured membrane lysates
T2 construct: Whole native receptor from cell membrane lysates, captured on plates by an antibody to the intracellular domain of ErbB2; Whole entry named; also called ErbB2 in solubilized membrane preparations / lysates of BT474 and SKBR3 cells
Experimental: The above identified peptide phage specifically bind to native, intact ErbB2 extracted from the membranes of human breast cancer cells that overexpress ErbB2. Plates were coated with 1 μg of an antibody that binds to the intracellular domain of ErbB2, followed by 100 μl of solubilized membrane preparations from two different breast cancer cell lines that overexpress ErbB2 (BT474 and SKBR3), and probed with CB1 peptide-phage, control library phage, and 9G6 anti-ErbB2. MCF7 cells serve as a (relative) negative target control, as MCF7 breast cancer cells express only a low level of ErbB2.

B1: 02-124 peptide phage clone (ErbB2-binding peptide 14) (peptide)
peptide: WTGWCLNPEESTWGFCRSAG
notes: From an EC-1 biased peptide phage library; also called EBP-14
- binding result [1]: binds
- binding result [2]: binds

B2: 02-137 peptide phage clone (ErbB2-binding peptide 15) (peptide)
peptide: WTGWCLSPEESTWGFCRSAG
notes: From an EC-1 biased peptide phage library; also called EBP-15
- binding result [1]: binds
- binding result [2]: binds

B3: 02-140 peptide phage clone (ErbB2-binding peptide 16) (peptide)
peptide: WTGWCLNPEESTWGFCSGYI
notes: From an EC-1 biased peptide phage library; also called EBP-16
- binding result [1]: binds
- binding result [2]: binds

B4: 02-135 peptide phage clone (ErbB2-binding peptide 17) (peptide)
peptide: WTGWCFDDNHSTWGFCTGSF
notes: From an EC-1 biased peptide phage library; also called EBP-17
- binding result [1]: binds
- binding result [2]: binds
